Measurements from article doi:10.1101/2024.11.06.622200.

Molecular target: purified recombinant myristoylated HIV-1 matrix protein (myrMA) (HIV-1 NL4-3)

With “HIV-1 spacer peptide 2 (SP2), added in vitro” the share of sub-images contributing to mature-like MA lattice classes on lipid monolayers, with SP2 (7% mature-like and 7% immature-like without SP2) was 47%.
